PMC3017603
Read-outs that look alike come from different tables or passages of the source.

Key:
Nab3-RRM(419) [1] = molecular target: T1, Nab3-RRM(419) (Saccharomyces cerevisiae, UniProt P38996 329-419); assay: fluorescence anisotropy
T1 sequence: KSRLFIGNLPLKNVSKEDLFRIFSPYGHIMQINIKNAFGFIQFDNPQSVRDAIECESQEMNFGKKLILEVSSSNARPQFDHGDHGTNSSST

Nab3-RRM(419) [2] = molecular target: T1, Nab3-RRM(419); assay: fluorescence anisotropy; remark: listed apart in the source

Binder: UUCUUAUUUUUA (ssRNA) [FAM-snR47one]
- binding result (Nab3-RRM(419) [1]): binds

Binder: UUCUUAUUCUUA (ssRNA) [FAM-wtsnR47]
- binding result (Nab3-RRM(419) [2]): binds
